This is an account of results in patent US20050142101A1.

Assay [1] has as its target CCL11 (eotaxin) (Homo sapiens (Human)) (UniProt P51671).
Assay [2] addresses CXCL12 (SDF-1α) (Homo sapiens (Human)) (UniProt P48061).
The next assay has as its target CCL14[9-74] (human) (UniProt Q16627).

“porcine kidney DPP IV/CD26 (from UniProt P22411) (enzyme)”: the CD26/DPP IV processing in vitro, MALDI mass spectrometry (time to complete processing) turned out to be 1 h in assay [1], 10 min in assay [2] and 12 h with CCL14[9-74] (human).
